The series is described as follows: label from the status in PepcDB records.
In the case of “MTVITLVLGMLLPAVVSILMLMASTQSRISEEENMMRAGLVEGMGLQVDEVVDALAQSLEVIAANGGADADDATRWTRLLQASRAFGKQFLEFHVANPNGDVISSSASLPEGINVADRAYFSTSLATEGMVASEGLVSRHTGQIALYFALAVRSDEEAHSGVVFAGFNGEVFGDMLRKAGPRSDGLTVFVLDRNGDSVYEHLPSGGRHPVHIPPADLRDCADGRRAWLEFGGTRHAVSVMAKRLATGEAPYLYLLVSTPDESFFSLSTLRGVTPLLLGTLCVALAALAAANRRIVHPLESLTRKVQAIEAGQPLPETAMESVREIGGLQTAVTRMAQAISQREQELAWFATHDDLTGLANRKALHEMLAARLDRLEEGASETVAVIFIDIDRFKAINDSMGHTWGDNVIAAFAARLGAFMHPLHAFCARVGGDEFVVVPDASATHNVVRDTRALLAHLGTPYDINGREVRLSASAGVLFVGDPGESPDVIIRNANAAMHRSKERGFGRISIFRPLHLDSYMLRLDIERELPLAAATGQLHMVYQPIVNASDGSLHSFEALMRWNHPRHGSLSPATFITVAEQTGHVGLLGDFALREAGACVRRFGEAGLLTPGLRFGVNISPAHLMAQDFLSDIESVLDAVSVPGDRITLEVTESALISTGAELMGRLETLAKRGLNFAIDDYGAGYSNIQYLASEHFRVIKIDKSLIDEVHLRDRMRAIVRSTVQLAHSLGCKIVAEGVETHAQANLLARLGCDYLQGYLFSRPVPETDAMRLAIRAMDQGTLLPPEAHPDA”, the protein production result is recorded as “failed”.
The entry for “MTVKAMALNTNQLFAYLNRGDIAEFKFSPLFTTLFFPNVATFSTQNIMLDTLDIEEVTMSAFCSPMVGSQVQRDKGYETSTIKPGYMKPKHEIDPTKTIMRMAGEDPAQLNDPTYRRMRLITGNMRRQINAIKARVEWLAVNAVTTGKNIIEGEGIERYEIDWKIPEKNIIEQADGKKWSEQDKETHYPIYDIELYADQAGCPANVMIMGAEVWRTLRSFKKFRELYDLSRGSESAAELACKNLGEVVSFKGYLGDLALIVYSGKYTDSDGTEKYFLEPDLLVLGNTNNKGLVAYGAIMDQEAVRTGATQNMFYPKNWIEDGDPAIEYVQTHSAPQPVPADIRKFVTVKIA” is “not failed”.
The entry for “MTVLYKGSLKQNNDPFHVTLLSKEHIEQILFLQNVVVEGLEDKSRLQPLSQEEFQYILEGNGMMIGAFIKNELIAFRALLVPPIDDEHLGLDIGLPESELHRVIYQEISNVHPNCRGNGMQKILATVIMDELQKENGKYDYVCCTVAPFNIPSLKDKFSQGMEIAALKEKYGGSMRYVFVKELREDKEKDWTEIKSVPMNNAGGQQALLSEGYRGYEMEKVDEDFVVKFGR” is “failed”; for “MTVNVENVEPELNIEIGPNWFASVMGTGIIANAAVGLPMVGQYLGQAGLVIWVIASLMLIVMLLLKAVQTITNPHIIKRQFNDPVMAQFFGAPPMALLTIAGGTLLFGHHFFAQDTLMVIAWSLWITGTIVGMMTAVIIPYRLFTHHEVRGDAAFGGWLMPVVPPMVSAAIGAMFIPHVQDTLLQQTLLYACYAMFGTSLIAAMIILTLIWGRLVHSGTSGGARVPTLWLVLGPLGQSITAAGALGAVALAVVEQPIAGSLNTMAILYGVPVWGFAFYWSILASFLTLRALRRKMPFALTWWAFTFPVGTCVTGTTQLALHTGLPAFEWAAVILFAGLLCAWVIAALGTIKGIKTGHIMKNPVSSPVIIAKKGPR” it is “failed”.
To “MTVRVCKMDGEVMPVVVVQNATVLDLKKAIQRYVQLKQEREGGVQHISWSYVWRTYHLTSAGEKLTEDRKKLRDYGIRNRDEVSFIKKLGQK” belongs “not failed”; to “MTVTATSVDEPEQLEPQAAPASRGARRVRRLVPAAAATLSGVLLYVSFPPRTLWWLALPAFAVLGWALRDRTWKAGLGLGYLFGLGFLLPLLVWTGVEVGPGPWLALAVVEAVFVALVGAGIAMVSRLPAWPLWAAALWIAGEAARARAPFGGFPWGKIAFGQADGVFLPLAAAGGTPVLGFAVVLCGFGLYEIVRQVVDGRRTGVVRRGAAAVALLSVAVPVVGALAARSLVSDKAEDGTATVAVIQGNVPRSGLEFNAQRRAVLDHHARETERLAAKIKAGKVAQPDFVLWPENSSDIDPFTNPDARAVIDSAAKAVGVPISVGGVVERDGKLYNEQILWDPAKGALDTYDKRQVQPFGEYLPLRSLLGAINKNWTSMVRQDFSRGTEPGVFTMAGTKVGLATCYEAAFDWAVRDNITHGAQIISVPSNNATFDRSEMTYQQLAMSRVRAVEHSRTVTVPVTSGVSAVIMPDGKITQKTGMFVADSLVQKVPLRSSQTPATRLGILPEMVLVLVAAGGLGWSVAAVVRGRRNDALQG”, “failed”; to “MTVWRSWRLLGVSGDSKPTDGPVSRFLNRRIASAIASAIIALNLPLTPNMLSLISFLTAAAAALFIAGGQLLVGGLLVQLSSVLDGVDGIVARRLRAASKAGGFLDTMLDRYADTVIYLALAYAAVATHGLETWAVLTAVLAVSGDIMVSYLHTRGERDAGVHPSLVGPLDSLASRDVRLLIVAVITAAGRPLEAMAAVALLSHAYVAVKSIYLFSLLKSKGV”, “failed”.
Regarding “MTWKPNVTVAAVIEQDDKYLLVEEIPRGTAIKLNQPAGHLEPGESIIQACSREVLEETGHSFLPEVLTGIYHWTCASNGTTYLRFTFSGQVVSFDPDRKLDTGIVRAAWFSIDEIRAKQAMHRTPLVMQCIEDYHAGKRYPLDILQYYD”, the protein production entry was “not failed”.
The entry for “MTWLPFIIIIPLFGAFSMPIVSLLKGKAKEIWATIISFTTLMVGIQVFREVWNRGTIVYALGSETPFGKANFPIRIVWEVDKFGAIMVLIITLVSFLAVLYSIEYMKHDTGLEKYYTLILILELGMLGIAITGDIFNFYVFLEIMSIASYALVAFRNDTWEAIEAGIKYMFVGSLASSLVLLGIALLYGQYGTLTMGYLAVKMSENPTIVAKIALSLFLGGLLFKSGASPVHMWLADAHPAAPSSISAMLSGLVIKVGGIYAIARVVFSIFLPAINLATVGWLVIIFACITLIVGNAMAVVQEDMKRLLAYSSVGQIGYILLGLGIGMVAYGSKIGELALAGAIYHIVNHAMMKALLFLVAGAVLHELGTRNLNELSGLAKTMPKTTFAFLIGAAAIVGMPPLNGFASKWLIYESSALFNPIIGSIAIIGTAFCTAAYVRVLFTFFGRPNEKVMRAKDPGALMLIPMFILVIAIILMGIFPWQISDKIMIPAARNLWDITSYVMTLMGGG” is “failed”; for “MTYEAGCGLIKALEDPDNRVRQRAVKTLGKRGNPDVLEDLMEALKDSRQPVQEAASEALRKIIAASDSVPVLVKALDATDRNVRKAAIEALWKAGTPEAIPPLLRELDDADWYLRSRAADALADIASPEAALGLIKVMDIHDSPVKKIIVNALGKIGTVEAVEGLVKALEDLEHHHHHH” it is “failed”.
To “MTYFASDFQDLDNSGNIENFIRCLELQQSLDLYKYYKQKTFEKMQLKPGDSVLEVGCGTGNDALLLANYVGETGKVTAVDRSQFMLDQARERAKNSTTKFEFVLADAEQLPFPGANFTAARVDRTLQHIAQPQKAIAEMARVVQSNGWVVAFEPDWETLVIDSDQRGVTRAITNFWCDNFPSGWVGRYLFKYFRQAGLTDIAVDPITICLTEFELADKILDLSRTVEKISEQGTISQNDLTLWFKAIDQNDQAGEFFCAFTAFLVRGRKP” belongs “failed”; to “MTYKITTSESKKEYLYMGSGDTRGESSLVAKPIEIILNKLPHAILAQQQFQKYITSPIYRYLSKLLLFREVAWPESTKDTQKGQVGIFSFQNNYADSATTFRILAHLDEHGYPLPNGAAEKNLPSLFEGFKATVSIIQQRLLLDNVDGATNSDKEKYVQLPDINTGFVNKTYSRIDLTHLLEDVETNVENLSINKTLEMDELTRLDSMINELESRKLKILERVKHIDSKSTNLENDVTLIKDRINFIEEYNLEADREQSLRKQMEEERSSEASSFTQNEEAISSLCDVESKDTRLKDFYKMPHEKSHDKNRQIISETYSRNTTAFRMTIPHGEHGNSITALDFDTPWGTLCSSSYQDRIVKVWDLNHGIQVGELPGHLATVNCMQIDKKNYNMLITGSKDATLKLWDLNLSREIYLDHSPLKEKTEEIVTPCIHNFELHKDEITALSFDSEALVSGSRDKKIFHWDLTTGKCIQQLDLIFTPTHSDIKMPARSLNNGACLLGTEAPMIGALQCYNSALATGTKDGIVRLWDLRVGKPVRLLEGHTDGITSLKFDSEKLVTGSMDNSVRIWDLRTSSILDVIAYDLPVSSLDFDGKLITVGANEGGVNVFNMERDEHWMTPEPPHSLDGDELSRRIAIVKYKDGFLINGHNDGDINVWTL”, “failed”; to “MTYLVTGATGGLGGYALNYLKELVPMSDIYALVRSKEKGADLKAAGFNIRVGDYSDAESMKQAFAGIDRVLFVSGAPGNRQVEHENVINAAKKAGVSYIAYTSFAGADKSTSALAEDHFFTEKVIEKSGIAHTFLRNNWYFENEMPMIGGALSAGKFVYAAENGKVGWALKREYAEVAAKAVAGAGFPEILELSGPLMTYEELTKALKEATGKDFDVISSDDKGFVENLVSVGLPQPVAEMFLSFQHDIKNDQLDVTSDDFEKALGKPLTNRVDALRELLKLEHHHHHH”, “not failed”.
Consider “MTYLVTGATGGLGGYALNYLKELVPMTDIYALVRSEEKGADLKAAGFNIRIGDYSDAESMKQAFAGIDRVLFVSGAPGNRQVEHENVVNTAKEAGVSYIAYTSFADADNSTSALAADHIFTEKVIEKSGIEHTFLRNNWYFENEMPMIGGALNGGKFVYAAGNGKTGWALKREYAEVAAKAVAGARFPEILELSGPVMTYAELTEALKEATGKDFEVISSDDKGFVENLVNVGMPQPVAEMFLSFQHDIKNNQLDVTSGDFEKALGKPLTNRVDALRELLQ”, for which the protein production result was “failed”.
To “MVADKSKKSKIEEKGEEENLEQIDAELVLSIEKLQEIQDDLEKINEKASDEVLEVEQKYNVIRKPVYDKRNEVIQSIPGFWMTAFLSHPALGDLLTEEDQKIFKYLNSLEVEDAKDVKSGYSITFHFTSNPFFEDAKLTKTFTFLEEGTTKITATPIKWKEGKGLPNGVNHDDKKGNKRALPEESFFTWFTDAQHKEDAGDEIHDEVADIIKEDLWSNPLTYFNNDADEEDFDGDDDGDEEGEEDDDDEEEEDGEE” belongs “failed”; to “MVAKQLSIFLENKSGRLTEVTEVLAKENINLSALCIAENADFGILRGIVSDPDKAYKALKDNHFAVNITDVVGISCPNVPGALAKVLGFLSAEGVFIEYMYSFANNNVANVVIRPSNMDKCIEVLKEKKVDLLAASDLYKL”, “not failed”.
For “MVAQLPEPIKIVRRAGDVRIHTFISAFTDDNIANATHIIEGRNKLVLVDGQFLVPYALQFRAYADSLGKEIDRIYLSHRHPDHWFGLGAAFSDIPIHALSETKEFLRQHGQDSLNDHWKLGNLAPKTLVIPEKTVRAGHEIIDGVKYVFDEVVDTEIDFLLTIGLPDVGVFIAQDLIYSGTHLYLTKYMEHWIGVLQGMLLSDYELFLPGHGFPADKNEVAKNIEYLSVAIEAAGHGLTNDAFKRFLLERFPERKCPGIFDIYIPRLFDNASEF”, the protein production entry is “failed”.
To “MVAVENVVFVFVAGLLTALATGLGAIPFFLVDEFSDRWNVLLWGLASGIMVAASLFGLVREGLAYGSPVLLVPGVLAGVGLVAVAHELLDDFDQSPKQFEQADFTKLLLILGILTVHSFPEGVAVGVSFAELGLEAATPESAVGIVGVSVPLLAVFMTVAISIHNIPEGTAIAIPLRSLGVSEWKMVWWAVFSSLPQPVGAVIAYYFVTLAKAFLPFGFGFAAGAMVYLVLTEFVPEALEYGDGLPGGGKRELLTGIAVGVLAMVPLAFV” belongs “failed”.

The values are drawn from a protein production outcome set (Wang et al. 2014).
